Experimental findings from patent US20200291126A1 (EUTILEX, published 2020) are described below.

By Kd is commonly meant the equilibrium constant for the complex coming apart. Read a high Kd as a looser complex. The term koff denotes the rate constant with which the complex falls apart. The term kon denotes a measure of how fast the partners come together.

Assay [1] addresses T1, V-Set And Immunoglobulin Domain Containing 4 (VSIG4) (human, UniProt Q9Y279 20-283, limits assumed).
T1 construct: also called CRIg; Z39Ig
T1 sequence (looked up): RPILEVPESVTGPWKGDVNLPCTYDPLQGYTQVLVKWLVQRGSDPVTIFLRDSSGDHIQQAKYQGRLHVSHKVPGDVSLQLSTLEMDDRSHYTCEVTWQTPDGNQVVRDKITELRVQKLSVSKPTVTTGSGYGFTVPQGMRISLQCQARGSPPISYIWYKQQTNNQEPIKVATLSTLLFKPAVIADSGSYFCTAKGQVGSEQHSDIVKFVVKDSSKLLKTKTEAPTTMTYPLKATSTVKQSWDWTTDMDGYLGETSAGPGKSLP
Nature of the assay: kinetic affinity measurement; method not stated at the table (SPR named for EU103.2 in FIG. 4B).

Assay [2] concerns the target T1, V-Set And Immunoglobulin Domain …. Briefly: kinetic affinity measurement; method not stated.

B1: EU103.2 antibody (antibody, V domains shown)
VH: QVQLQESGPGLVKPSQTLSLTCSFSGISLTTSGMGVGWIRQPPGKGLEWLADIFWDDNKYYNPSLKSRVTISVDTSKNQFSLKLSSVTAADTAVYYCVRVYYKNDGYFDVWGQGTLVTVSS
VL: EIVMTQSPATLSVSPGERATLSCRASKSVTTSGYSFMHWYQQKPGQAPRLLIYLASNLEPGIPARFSGSGSGTEFTLTISSLQSEDFAVYYCQHSRELPYTFGQGTKLEIK
notes: also called humanized anti-VSIG4 antibody generated from mouse anti-VSIG4 antibody mu6H8
Consider B1, for which, in assay [1], the Kd was found to be 71.6 nM, the koff was 0.0131 s⁻¹ and the kon was 183000 M⁻¹ s⁻¹.

B2: A1 antibody (EU103_T01.01) (antibody, V domains shown)
VH: QVTLKESGPTLVKPTQTLTLTCTFSGISLTTSGMGVGWIRQPPGKALEWLADIFWDDNKYYNPSLKSRLTITKDTSKNQVVLTMTNMDPVDTATYYCVRVYYKNDGYFDVWGKGTTVTVSS
VL: DIVLTQSPLSLPVTLGQPASISCRASKSVTTSGYSFMHWYQQRPGQSPRLLIYLASNLEPGVPDRFSGSGSGTDFTLKISRVEAEDVGVYYCQQSGELPYTFGQGTKLEIK
In assay [2], B2 displayed a Kd of 8.69 nM, a koff of 0.00328 s⁻¹ and a kon of 378000 M⁻¹ s⁻¹.

B3: A1.3 antibody (EU103_T01.01S) (antibody, V domains shown)
VH: QVTLVESGPTLVKPGQTLTLTCTFSGISLTTSGMGVGWIRQPPGKALEWLADIFWDDNKYYNPSLKGRLTITKDTSKNQVYLTMTNMDPVDTATYYCVRVYYKNDGYFDVWGKGTTVTVSS
VL: DIVLTQSPLSLPVTLGQPASISCRASKSVTTSGYSFMHWYQQRPGQSPRLLIYLASNLEPGVPDRFSGSGSGTDFTLKISRVEAEDVGVYYCQQSGELPYTFGQGTKLEIK
notes: Generated from A1
Regarding B3, in assay [2], the Kd was 7.95 nM, the koff is 0.0032 s⁻¹ and the kon was determined as 402000 M⁻¹ s⁻¹.

B4: A2 antibody (EU103_T01.02) (antibody, V domains shown)
VH: QVTLKESGPTLVKPTQTLTLTCTFSGISLTTSGMGVGWIRQPPGKALEWLADIFWDDNKYYNPSLKSRLTITKDTSKNQVVLTMTNMDPVDTATYYCVRVYYKNDGYFDVWGKGTTVTVSS
VL: DIVLTQSPLSLPVTLGQPASISCRASKSVTTSGYSFMHWYQQRPGQSPRLLIYLASNLEPGVPDRFSGSGSGTDFTLKIFRVEAEDVGVYYCQQSGELPYTFGQGTKLEIK
In assay [2], B4 gave a Kd of 8.23 nM, a koff of 0.00296 s⁻¹ and a kon of 360000 M⁻¹ s⁻¹.

B5: A2.3 antibody (EU103_T01.02S) (antibody, V domains shown)
VH: QVTLVESGPTLVKPGQTLTLTCTFSGISLTTSGMGVGWIRQPPGKALEWLADIFWDDNKYYNPSLKGRLTITKDTSKNQVYLTMTNMDPVDTATYYCVRVYYKNDGYFDVWGKGTTVTVSS
VL: DIVLTQSPLSLPVTLGQPASISCRASKSVTTSGYSFMHWYQQRPGQSPRLLIYLASNLEPGVPDRFSGSGSGTDFTLKIFRVEAEDVGVYYCQQSGELPYTFGQGTKLEIK
notes: Generated from A2
In assay [2], B5 showed a Kd of 7.64 nM, a koff of 0.00308 s⁻¹ and a kon of 404000 M⁻¹ s⁻¹.
